The values that follow come from patent US5792742.

Where no end group is shown, it is not given here. [ ]: non-standard residue; d: D form. pGlu = O=C1CC[C@@H](C(=O)O)N1

The target in test [1] is fibrin (fibrinogen dried on microtiter wells and converted with thrombin). Description: competitive ELISA on fibrin-coated wells, competitor biotinylated Fn (2.3 nM).
Test [2] has the same target. Description: competitive ELISA on fibrin-coated plates, competitor Fn (2.3 nM), 5,000 molar excess.
Test [3] shares this target. Description: competitive ELISA on fibrin-coated plates, competitor Fn (2.3 nM). (ELISA stands for enzyme-linked immunosorbent assay.)
The target is the same in test [4]. Description: competitive ELISA against intact Fn on fibrin.
Test [5] has the same target. Description: competitive ELISA on fibrin-coated plates, competitor Fn.

B1: recombinant ^1 F1.^2 F1 module pair of fibronectin (peptide)
chain: QAQQMVQPQSPVAVSQSKPGCYDNGKHYQINQQWERTYLGNALVCTCYGGSRGFNCESKPEAEETCFDKYTGNTYRVGDTYERPKDSMIWDCTCIGAGRGRISCTI
modifications: N-terminal pyroglutamate; the major species lacks the NH2-terminal Gln-Ala dipeptide and its new N-terminal Gln is also pyroglutamate
B1 displayed a % inhibition of biotinylated Fn binding in test [1] of 15%. The molecule further returned a % inhibition of Fn binding in test [2] of less than 20%.

B2: recombinant ^1 F1 module of fibronectin (peptide)
chain: [pGlu]AQQMVQPQSPVAVSQSKPGCYDNGKHYQINQQWERTYLGNALVCTCYGGSRGFNCESKPE
modifications: not fully specified (bridges); also: major species lacks N-terminal Gln-Ala, its new N-terminal Gln also pyroglutamate
For B2, the % inhibition of Fn binding in test [3] was less than 20%.

B3: t-PA type 1 module (peptide)
chain: CRDEKTQMIYQQHQSWLRPVLRSNRVEYCWCNSGRAQCH
modifications: not fully specified (bridges); cysteine pairing not given here
B3 registered a % inhibition (so in the source) in test [4] of 45%. Besides, in test [5], the % inhibition of fibronectin binding was 55%.
